Experiments:
[1] = target: T1, mouse B7H4 on the cell surface (mouse, UniProt Q7TSP5 25-257); test: FACS, CHOK1/m B7H4 cells
T1 construct: whole, on cells; also called CHOK1/m B7H4
T1 sequence (looked up): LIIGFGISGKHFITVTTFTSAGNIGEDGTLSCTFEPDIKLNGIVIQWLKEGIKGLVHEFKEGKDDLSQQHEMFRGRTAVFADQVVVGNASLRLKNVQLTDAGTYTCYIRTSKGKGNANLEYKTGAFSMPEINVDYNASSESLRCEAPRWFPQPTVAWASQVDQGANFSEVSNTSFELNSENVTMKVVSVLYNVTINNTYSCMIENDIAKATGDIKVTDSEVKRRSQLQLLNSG
Method: This example is intended to investigate the in vitro binding activity of anti-human B7H4 H2L2 monoclonal antibody to human/cynomolgus monkey/mouse B7H4. Antibody binding experiments at the cellular level were performed using CHOK1 cell line overexpressing human B7H4 (CHOK1/hu B7H4, Harbour BioMed), CHOK1 cell line overexpressing cynomolgus monkey B7H4 (CHOK1/cyno B7H4, Harbour BioMed), CHOK1 cell line overexpressing mouse B7H4 (CHOK1/m B7H4, Harbour BioMed) and SK-BR-3 cell line (ATCC® HTB-30) highly expressing human B7H4. Briefly, CHOK1/hu B7H4 cells, CHOK1/cyno B7H4 cells, CHOK1/m B7H4 cells or SK-BR-3 cells were digested and resuspended with PBS containing 2% BSA. The cell density was adjusted to 1×10⁶ cells/mL. The cells were seeded in a 96-well V-bottom plate (Corning, #3894) at 100 μL/well, followed by the addition of test antibodies diluted in a 3-fold concentration gradient of 2 times the final concentration, each at 100 μL/well. The cells were incubated at 4° C. for 2 h away from light. Thereafter, the cells in each well were rinsed twice with 100 μL of pre-cooled PBS containing 2% BSA, and centrifuged at 500 g at 4° C. for 5 min, and then the supernatant was discarded. […] Finally, the cells in each well were resuspended with 200 μL of pre-cooled PBS containing 2% BSA, and the fluorescence signal values were read using an ACEA Novocyte3000 flow cytometer.

[2] = target: T2, Human B7H4 (his tag), Sino Biological #10738-H08H (human, UniProt Q7Z7D3 25-259); test: SPR (Biacore T200), antibody captured on Protein A, B7H4-his as analyte, 1:1 fit
T2 construct: extracellular domain; Bought protein; also called hB7H4-ECD-his
T2 sequence (looked up): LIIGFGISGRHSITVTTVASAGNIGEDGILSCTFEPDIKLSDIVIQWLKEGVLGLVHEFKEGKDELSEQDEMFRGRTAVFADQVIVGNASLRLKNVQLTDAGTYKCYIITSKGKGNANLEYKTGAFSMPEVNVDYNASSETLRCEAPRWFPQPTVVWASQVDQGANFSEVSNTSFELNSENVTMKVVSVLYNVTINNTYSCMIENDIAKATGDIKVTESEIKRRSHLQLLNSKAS
Method: 10×HBS-EP+ (GE Healthcare, #BR-1006-69) was diluted 10-fold and then taken as an experimental buffer. The flow rate was set at 10 μL/min, and Protein A was coupled to 4 channels of a chip CM5 (GE Healthcare, #BR-1005-30) through the following procedures: 1) the injection time was set to 800 s, and a fresh mixture of 50 mM NHS and 200 mM EDC was injected into the 4 channels in a volume ratio of 1:1; 2) Protein A was diluted to 20 μg/mL with sodium acetate (GE Healthcare, #BR-1003-50) at pH 4.5 and injected into each channel for 800 s; and 3) 1 M ethanolamine at pH 8.5 was injected for 800 s to block the remaining active carboxyl groups on the chip surface. After blocking, the instrument was equilibrated with 1×HBS-EP+buffer for 2 hours, and the final coupling level of Protein A was about 2000 RU.
A multi-cycle kinetics mode was set at Biacore T200, and each cycle included antibody capture, analyte binding and chip regeneration. […] Finally, 10 mM glycine-hydrochloric acid at pH 1.5 (GE Healthcare, #BR-1003-54) was injected at the same flow rate for 30 s to regenerate the chip.
The experimental results were analyzed using the Biacore T200 analysis software 2.0, with channel 1 subtracted as a reference channel and a 1:1 kinetic fitting model selected as an analysis model.

[3] = target: T3, B7-H4 (Acro Biosystems, #B74-H82E2) (UniProt Q7Z7D3 29-258); test: BLI epitope competition; 1st Ab = row; competitor (2nd Ab) Control antibody 1; inhibition of the 2nd Ab signal
T3 construct: Bought protein; also called B7-H4 captured on SA sensor
T3 sequence (looked up): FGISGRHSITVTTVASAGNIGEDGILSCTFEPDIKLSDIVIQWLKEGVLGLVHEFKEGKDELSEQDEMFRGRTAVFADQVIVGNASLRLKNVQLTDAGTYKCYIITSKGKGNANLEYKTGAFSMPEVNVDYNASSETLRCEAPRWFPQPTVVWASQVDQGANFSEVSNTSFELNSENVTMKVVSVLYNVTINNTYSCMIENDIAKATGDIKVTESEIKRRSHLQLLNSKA
Method: (§1) Step one, acquisition of 100% signal of antibodies: B7-H4 (Acro Biosystems, #B74-H82E2-200 μg) was captured at a capture height of 0.25 nm using an SA sensor (Fortebio, #18-5019). The sensor was equilibrated in a buffer for 120 s and then immersed in each antibody diluted to 100 nM for 240 s, and the final signal of the antibody binding to B7-H4 was recorded as the 100% signal of the antibody. Step two, epitope competition experiment: B7-H4 was captured using an SA sensor at a capture height of 0.25 nm. The sensor was immersed in a primary antibody (at a concentration of 100 nM) for 240 s, and then the SA sensor was immersed in a mixture of the primary and secondary antibodies (both at a final concentration of 100 nM) for 240 s, and the difference in signals after immersion of the sensor in the antibody mixture was recorded as the signal of the antibody as the secondary antibody. The inhibition rate was calculated according to the following formula: […]

[4] = target: T3, B7-H4 (Acro Biosystems, #B74-H82E2); test: BLI epitope competition; 1st Ab = row; competitor (2nd Ab) Control antibody 2; inhibition of the 2nd Ab signal
Method: as §1

- EC50 [1]: 1.38 nM
- Maximum MFI [1]: 858000 MFI
- Kd [2]: 4.67 nM
- koff [2]: 0.000189 s⁻¹
- kon [2]: 40400 M⁻¹ s⁻¹
- Competitive inhibition rate (%) [3]: 95.3%
- Competitive inhibition rate (%) [4]: 94.6%
B1: Control antibody 1 (PR000157) (antibody, V domains shown)
VH: EVQLVQSGAEVKKPGASVKVSCKASGYTFTSYWIGWVRQAPGQGLEWIGDIYPGGGYTNYNEKFKGRVTITRDTSTSTAYLELSSLRSEDTAVYYCARLAGSSYRGAMDSWGQGTLVTVSS
VL: DIQMTQSPSSLSASVGDRVTITCKASQGFNKYVAWYQQKPGKAPKLLIYYTSTLQPGVPSRFSGSGSGRDYTLTISSLQPEDFATYYCLQYGDLLYAFGQGTKVEIKR
notes: Anti-B7H4 IgG1 control antibody from WO2016040724A1; also called 1D11.v1.9varC2
